Here are results for two proteins from publication PMC11818005, “Elucidation of the key flavonol biosynthetic pathway in golden Camellia and its application in genetic modification of tomato fruit metabolism” (Horticulture Research, 2024).

Common to all, as to assay: UPLC-UV of flavonol product, initial kinetics
Holding throughout (conditions): 100 mM Tricine pH 7.5, 0.1 mM FeSO4, 10 mM ascorbate, 10 mM 2-oxoglutarate, 28°C

Substrate in data set [1]: O=C1c2c(O)cc(O)cc2O[C@H](c2ccc(O)c(O)c2)[C@H]1O
It counts as biochemical, Arabidopsis thaliana. An excerpt: (§1) UPLC-UV of flavonol product, initial kinetics on AtFLS1

Substrate in data set [2]: O=C1c2c(O)cc(O)cc2O[C@H](c2ccc(O)cc2)[C@H]1O
It counts as biochemical, Arabidopsis thaliana.
Source text: as §1

Substrate in data set [3]: O=C1c2c(O)cc(O)cc2O[C@H](c2ccc(O)c(O)c2)[C@H]1O
Format: biochemical, Camellia nitidissima. An excerpt:
(§2) UPLC-UV of flavonol product, initial kinetics on CnFLS1

Substrate in data set [4]: O=C1c2c(O)cc(O)cc2O[C@H](c2ccc(O)cc2)[C@H]1O
Format: biochemical, Camellia nitidissima.
Source text: as §2

B1: AtFLS1 (Arabidopsis thaliana) (protein)
chain: MEVERVQDISSSSLLTEAIPLEFIRSEKEQPAITTFRGPTPAIPVVDLSDPDEESVRRAVVKASEEWGLFQVVNHGIPTELIRRLQDVGRKFFELPSSEKESVAKPEDSKDIEGYGTKLQKDPEGKKAWVDHLFHRIWPPSCVNYRFWPKNPPEYREVNEEYAVHVKKLSETLLGILSDGLGLKRDALKEGLGGEMAEYMMKINYYPPCPRPDLALGVPAHTDLSGITLLVPNEVPGLQVFKDDHWFDAEYIPSAVIVHIGDQILRLSNGRYKNVLHRTTVDKEKTRMSWPVFLEPPREKIVGPLPELTGDDNPPKFKPFAFKDYSYRKLNKLPLD
notes: cloned for comparison with CnFLS1 (pET28b, E. coli Rosetta (DE3), Ni-NTA purified)
In general, Km refers to the substrate concentration at which the rate is half of its maximum. Usually kcat stands for the number of substrate molecules converted per active site and unit of time at saturation. By kcat/Km is commonly meant the second-order rate constant that governs catalysis at low substrate concentration. As to B1, in data set [1], the Km was 29.89 µM, the kcat is 0.02 s⁻¹ and the catalytic efficiency (kcat/Km) was 794 M⁻¹ s⁻¹. In data set [2], the Km is 95.01 µM, the kcat is 0.11 s⁻¹ and the specificity constant (kcat/Km) was determined as 1180 M⁻¹ s⁻¹.

B2: CnFLS1 (Camellia nitidissima) (protein)
chain: MELERVQVIASLSKCIDTIPAEYIRSENEQPAITTIQGKVLEVPVIDLSNDSDDQNIVQMVAEACRDWGIFQVVNHGIPDEVIGNLQRVGKDFFELPQEEKEVYAKPPESKSVEGYGTKLQKEVEGKKGWVDHLFHKIWPPSAINYKFWPKNPPSYREANEVYAERLRAVADKLFRWLSLGLGLEGHEVKEAVGGDDLIYLMKINYYPPCPRPDLALGVVAHTDMSTLTILVPNEVPGLQVFKDDHWYEVKYIPNALIVHIGDQIEIVSNGKYKAVFHRSTVNKETTRMSWPVFIEPSPEVEVGPHPKLIDDENPPKYKTKKYEDYMYCKLNKLPQ
Consider B2, for which, in data set [3], the Michaelis-Menten constant (Km) came to 18.68 µM, the kcat was determined as 0.02 s⁻¹ and the kcat/Km stood at 1320 M⁻¹ s⁻¹. In addition, in data set [4], the Km was 60.63 µM, the turnover number (kcat) was 0.08 s⁻¹ and the catalytic efficiency (kcat/Km) was 1300 M⁻¹ s⁻¹.
